Assay [1] deals with EBC-1 cells. The assay can be described thus: Cell cycle arrest assay. The conditions noted are these: 10 nM, 24 hours. It is filed as cell-based, human. As to the method:
Cell Cycle Arrest Assay. Briefly, EBC-1 cells were cultured in standard culture media (Eagle's minimum essential medium+10% fetal bovine serum) and conditions recommended by the vendor. Cells were plated at a density of 2×10^4 cells per well and incubated at 37° C. for 24 hours. […] Plates were incubated for 24 hours at 37° C. At the end of the culture period, test articles were removed from the plate. Cells were trypsinized, washed, and fixed in 70% ethanol for 30 minutes. Cells were washed, stained with propidium iodide staining using a cell cycle analysis kit (Abcam), and assessed by flow cytometry.

The test system of assay [2] is EBC-1 cells. The assay can be described thus: ADCC effector function with PBMCs. It is filed as cell-based, human. The conditions noted are these: PBMCs from all donors, vs IgG1 isotype control.
Assay [3] concerns phosphorylation of ERK1/2 and Akt1 in NCI-H441 cells. Nature of the assay: Cell signaling assay (ELISA). It is filed as cell-based, human. The conditions noted are these: 10 μg/mL, 30 minutes. As to the method:
Cell Signaling Assay. Briefly: NCI-H441 cells were cultured in standard culture media (RPMI-1640 Medium+10% fetal bovine serum) using conditions recommended by the vendor. For the cell signaling assay, NCI-H441 cells were seeded in 6-well plates at 300,000 cells per well in culture media. The next day, the cells were washed with serum-free medium twice and then replenished with 3 mL RPMI+0.2% fetal bovine serum.
The following day, cells were treated with 50 ng/ml HGF or 10 μg/mL of test articles and incubated for 30 minutes at 37° C. Following the 30-minute stimulation, the treatment medium was aspirated, the cells were washed 2 times in an excess volume of ice-cold phosphate buffered saline and collected by cell scraping on ice in 250 μL ice-cold lysis buffer per well and transferred to pre-chilled tubes. […] Lysates were thawed on ice for 1 hour with occasional vortexing, and protein concentrations were measured using the BCA protein assay according to the manufacturer's instructions. Lysates were diluted in lysis buffer to final concentration 0.5 mg/mL, and 100 μL of each sample was assessed using commercially available ELISA kits to detect total ERK1/2 and Akt1 and their phosphorylated forms. ELISAs were performed and analyzed according to the manufacturer's instructions. […]

For assay [4], the system named is EBC-1 cells. The assay can be described thus: Complement dependent cytotoxic assay. The format is cell-based. As to conditions: 30% human complement. As to the method: Complement Dependent Cytotoxic Assay. EBC-1 cells were incubated with serially diluted test articles: Q397-noV205C or non-binding antibody. For the technical control, Raji cells, which expresses CD20 on the cell surface, were incubated with serially diluted test articles: anti-CD20 (research grade recombinant anti-CD20 rituximab, catalog number A2009) or non-binding antibody (human IgG1 isotype control antibody, catalog number BE0297). Briefly, EBC-1 and Raji cells were added to a 96-well U-bottom plate at a density of 2.5×10^4 cells/well. Serially diluted test articles were added to the plate. The starting concentration of all test articles was 100 nM. A 3-fold dilution was performed for 9 concentration points and added to the test plate in duplicates. The plate was then incubated for 30 minutes at 37° C. At the end of the culture period, either heat inactivated or pooled human complement sera at a final concentration of 30% diluted in culture media (RPMI) was added to the plate. The plate was then incubated at 37 °C for two hours and cell lysis was assessed using CellTiter-Glo.

Assay [5] relates to EBC-1 cells. Nature of the assay: ADCP effector function. The format is cell-based, human. As to conditions: vs IgG1 isotype control.
The test system of the next assay is NCI-H441 cells. Nature of the assay: Cell proliferation assay (CellTiter-Glo). The conditions noted are these: 10 nM, 4 days, serum starved. The format is cell-based, human.
In another assay the target is recombinant human cMET (human, UniProt P08581 25-932, limits assumed). Nature of the assay: BLI (Octet), antibody captured on AHC sensor, recombinant human cMET as analyte, pH 7.4; BLI, recombinant human cMET as analyte, pH 7.4.
In the next assay the target is mouse cMET (mouse, UniProt P16056 25-931, limits assumed). Nature of the assay: ELISA or BLI (the filing does not say which).
The target in the next assay is rat cMET (rat, UniProt P97523 25-935, limits assumed). The assay can be described thus: ELISA or BLI (the filing does not say which).
In assay [6] the target is human cMET on cMET+ human cancer cells (human, UniProt P08581 25-1390). Nature of the assay: cell-based or functional assay.
In assay [7] the target is recombinant cynomolgus monkey cMET (cynomolgus monkey, UniProt A0A2K5UM36 25-932). The assay can be described thus: BLI (Octet), antibody captured on AHC sensor, recombinant cynomolgus monkey cMET as analyte, pH 7.4.

Entries after “also recorded” stand apart in the source; their conditions may differ. Non-standard residues stand in square brackets, D forms with d. Residues, ends and D or L forms follow the SMILES beside them. *: point of attachment. Dolaproine = CO[C@@H]([C@@H]1CCCN1)[C@@H](C)C(=O)O; Dil = CC[C@H](C)[C@H](NC)[C@@H](CC(=O)O)OC; X1 = C[C@@H](N*)[C@@H](O)c1ccccc1; NMeV = CN[C@H](C(=O)O)C(C)C

mouse cMET, sequence (P16056 25-931 limits assumed): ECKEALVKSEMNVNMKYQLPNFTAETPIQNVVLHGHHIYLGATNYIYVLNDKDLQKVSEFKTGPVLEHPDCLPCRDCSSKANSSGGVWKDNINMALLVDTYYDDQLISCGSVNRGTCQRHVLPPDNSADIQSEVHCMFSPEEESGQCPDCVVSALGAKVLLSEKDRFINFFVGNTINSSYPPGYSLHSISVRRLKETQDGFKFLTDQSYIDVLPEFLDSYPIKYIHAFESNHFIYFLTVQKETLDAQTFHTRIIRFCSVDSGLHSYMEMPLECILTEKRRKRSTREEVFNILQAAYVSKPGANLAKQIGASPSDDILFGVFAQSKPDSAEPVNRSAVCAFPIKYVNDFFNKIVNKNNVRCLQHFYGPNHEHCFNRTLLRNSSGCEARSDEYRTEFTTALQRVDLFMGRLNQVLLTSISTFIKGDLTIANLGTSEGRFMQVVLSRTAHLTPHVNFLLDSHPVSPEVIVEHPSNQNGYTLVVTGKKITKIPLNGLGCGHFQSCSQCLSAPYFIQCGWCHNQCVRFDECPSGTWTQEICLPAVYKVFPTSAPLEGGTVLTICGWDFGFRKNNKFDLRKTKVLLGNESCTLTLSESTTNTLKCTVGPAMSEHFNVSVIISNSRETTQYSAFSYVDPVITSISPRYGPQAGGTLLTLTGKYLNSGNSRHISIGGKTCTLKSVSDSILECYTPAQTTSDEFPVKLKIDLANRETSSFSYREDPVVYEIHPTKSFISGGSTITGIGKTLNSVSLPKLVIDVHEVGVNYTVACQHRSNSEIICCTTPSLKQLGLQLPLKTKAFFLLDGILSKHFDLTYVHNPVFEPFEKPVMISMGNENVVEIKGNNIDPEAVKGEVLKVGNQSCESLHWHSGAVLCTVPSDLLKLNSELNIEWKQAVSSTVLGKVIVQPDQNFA
rat cMET, sequence (P97523 25-935 limits assumed): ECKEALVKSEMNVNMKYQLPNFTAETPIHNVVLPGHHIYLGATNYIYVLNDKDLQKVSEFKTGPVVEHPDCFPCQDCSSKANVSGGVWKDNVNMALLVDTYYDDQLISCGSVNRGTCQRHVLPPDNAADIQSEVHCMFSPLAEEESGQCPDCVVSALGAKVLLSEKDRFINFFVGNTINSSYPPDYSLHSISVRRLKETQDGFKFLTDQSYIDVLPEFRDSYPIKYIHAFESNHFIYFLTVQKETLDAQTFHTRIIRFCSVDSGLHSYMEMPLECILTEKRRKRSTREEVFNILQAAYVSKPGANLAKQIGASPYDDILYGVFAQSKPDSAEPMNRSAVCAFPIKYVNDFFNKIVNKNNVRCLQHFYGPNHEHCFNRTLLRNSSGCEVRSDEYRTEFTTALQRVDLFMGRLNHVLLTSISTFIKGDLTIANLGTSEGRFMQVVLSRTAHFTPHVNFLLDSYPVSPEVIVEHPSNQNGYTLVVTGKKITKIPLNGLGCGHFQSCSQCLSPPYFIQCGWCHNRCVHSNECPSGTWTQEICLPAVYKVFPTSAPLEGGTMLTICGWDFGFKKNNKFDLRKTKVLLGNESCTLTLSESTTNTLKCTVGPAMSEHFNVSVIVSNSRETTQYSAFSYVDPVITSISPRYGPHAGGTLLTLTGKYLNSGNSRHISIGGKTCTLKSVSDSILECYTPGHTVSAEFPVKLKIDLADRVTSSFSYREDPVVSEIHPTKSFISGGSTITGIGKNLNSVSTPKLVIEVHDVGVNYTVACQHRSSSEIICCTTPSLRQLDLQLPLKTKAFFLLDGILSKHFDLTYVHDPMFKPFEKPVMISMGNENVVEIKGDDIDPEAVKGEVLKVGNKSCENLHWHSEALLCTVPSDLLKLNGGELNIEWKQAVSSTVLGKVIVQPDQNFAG
recombinant cynomolgus monkey cMET, sequence (A0A2K5UM36 entry or part of it limits assumed): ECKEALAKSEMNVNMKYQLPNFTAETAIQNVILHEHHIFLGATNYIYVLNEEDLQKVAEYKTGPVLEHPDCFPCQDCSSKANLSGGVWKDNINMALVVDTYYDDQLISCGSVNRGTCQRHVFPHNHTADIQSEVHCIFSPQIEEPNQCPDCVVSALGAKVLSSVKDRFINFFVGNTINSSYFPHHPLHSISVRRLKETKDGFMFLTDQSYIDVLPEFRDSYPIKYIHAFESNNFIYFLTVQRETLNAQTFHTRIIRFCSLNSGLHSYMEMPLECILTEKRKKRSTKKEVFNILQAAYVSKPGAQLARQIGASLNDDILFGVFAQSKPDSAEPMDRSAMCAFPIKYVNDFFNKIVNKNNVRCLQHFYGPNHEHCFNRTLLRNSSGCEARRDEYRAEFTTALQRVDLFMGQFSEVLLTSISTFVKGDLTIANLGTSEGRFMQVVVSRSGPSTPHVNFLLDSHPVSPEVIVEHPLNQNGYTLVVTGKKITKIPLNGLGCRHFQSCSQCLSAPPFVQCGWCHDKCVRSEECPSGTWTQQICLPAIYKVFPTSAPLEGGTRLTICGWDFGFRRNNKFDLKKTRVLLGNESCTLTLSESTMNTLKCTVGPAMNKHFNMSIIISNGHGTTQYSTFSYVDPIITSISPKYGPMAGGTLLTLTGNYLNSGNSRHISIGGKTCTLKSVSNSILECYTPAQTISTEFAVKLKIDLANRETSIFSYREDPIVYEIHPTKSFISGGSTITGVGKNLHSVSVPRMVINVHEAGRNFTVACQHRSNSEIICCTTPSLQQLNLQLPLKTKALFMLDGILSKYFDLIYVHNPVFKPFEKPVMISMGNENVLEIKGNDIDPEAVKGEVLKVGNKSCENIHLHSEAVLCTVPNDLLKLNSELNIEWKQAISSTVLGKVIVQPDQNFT
recombinant human cMET, sequence (P08581 25-932 limits assumed): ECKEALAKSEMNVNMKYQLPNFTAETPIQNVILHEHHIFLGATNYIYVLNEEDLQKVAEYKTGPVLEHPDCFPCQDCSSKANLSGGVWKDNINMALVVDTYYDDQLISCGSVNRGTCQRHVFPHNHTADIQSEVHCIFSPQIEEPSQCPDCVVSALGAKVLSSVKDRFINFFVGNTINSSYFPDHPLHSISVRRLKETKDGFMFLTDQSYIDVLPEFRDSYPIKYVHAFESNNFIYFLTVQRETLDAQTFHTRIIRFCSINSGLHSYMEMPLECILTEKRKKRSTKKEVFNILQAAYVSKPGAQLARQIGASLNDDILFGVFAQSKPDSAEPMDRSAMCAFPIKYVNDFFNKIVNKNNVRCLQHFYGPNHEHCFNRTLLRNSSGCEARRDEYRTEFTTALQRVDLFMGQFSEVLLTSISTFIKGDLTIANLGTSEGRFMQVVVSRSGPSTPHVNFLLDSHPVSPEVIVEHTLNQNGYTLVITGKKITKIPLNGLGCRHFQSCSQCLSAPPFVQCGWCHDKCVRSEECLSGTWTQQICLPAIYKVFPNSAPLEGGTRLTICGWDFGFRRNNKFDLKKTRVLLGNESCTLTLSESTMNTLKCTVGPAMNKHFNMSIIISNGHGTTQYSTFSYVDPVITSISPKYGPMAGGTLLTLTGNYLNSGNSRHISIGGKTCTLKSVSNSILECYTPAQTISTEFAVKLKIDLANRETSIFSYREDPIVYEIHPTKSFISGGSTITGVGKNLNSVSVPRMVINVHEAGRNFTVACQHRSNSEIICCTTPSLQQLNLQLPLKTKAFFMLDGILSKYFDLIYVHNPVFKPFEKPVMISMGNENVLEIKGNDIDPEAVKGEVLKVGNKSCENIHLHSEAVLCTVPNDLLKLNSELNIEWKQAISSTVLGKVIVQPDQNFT
human cMET on cMET+ human cancer cells, sequence (P08581 25-1390): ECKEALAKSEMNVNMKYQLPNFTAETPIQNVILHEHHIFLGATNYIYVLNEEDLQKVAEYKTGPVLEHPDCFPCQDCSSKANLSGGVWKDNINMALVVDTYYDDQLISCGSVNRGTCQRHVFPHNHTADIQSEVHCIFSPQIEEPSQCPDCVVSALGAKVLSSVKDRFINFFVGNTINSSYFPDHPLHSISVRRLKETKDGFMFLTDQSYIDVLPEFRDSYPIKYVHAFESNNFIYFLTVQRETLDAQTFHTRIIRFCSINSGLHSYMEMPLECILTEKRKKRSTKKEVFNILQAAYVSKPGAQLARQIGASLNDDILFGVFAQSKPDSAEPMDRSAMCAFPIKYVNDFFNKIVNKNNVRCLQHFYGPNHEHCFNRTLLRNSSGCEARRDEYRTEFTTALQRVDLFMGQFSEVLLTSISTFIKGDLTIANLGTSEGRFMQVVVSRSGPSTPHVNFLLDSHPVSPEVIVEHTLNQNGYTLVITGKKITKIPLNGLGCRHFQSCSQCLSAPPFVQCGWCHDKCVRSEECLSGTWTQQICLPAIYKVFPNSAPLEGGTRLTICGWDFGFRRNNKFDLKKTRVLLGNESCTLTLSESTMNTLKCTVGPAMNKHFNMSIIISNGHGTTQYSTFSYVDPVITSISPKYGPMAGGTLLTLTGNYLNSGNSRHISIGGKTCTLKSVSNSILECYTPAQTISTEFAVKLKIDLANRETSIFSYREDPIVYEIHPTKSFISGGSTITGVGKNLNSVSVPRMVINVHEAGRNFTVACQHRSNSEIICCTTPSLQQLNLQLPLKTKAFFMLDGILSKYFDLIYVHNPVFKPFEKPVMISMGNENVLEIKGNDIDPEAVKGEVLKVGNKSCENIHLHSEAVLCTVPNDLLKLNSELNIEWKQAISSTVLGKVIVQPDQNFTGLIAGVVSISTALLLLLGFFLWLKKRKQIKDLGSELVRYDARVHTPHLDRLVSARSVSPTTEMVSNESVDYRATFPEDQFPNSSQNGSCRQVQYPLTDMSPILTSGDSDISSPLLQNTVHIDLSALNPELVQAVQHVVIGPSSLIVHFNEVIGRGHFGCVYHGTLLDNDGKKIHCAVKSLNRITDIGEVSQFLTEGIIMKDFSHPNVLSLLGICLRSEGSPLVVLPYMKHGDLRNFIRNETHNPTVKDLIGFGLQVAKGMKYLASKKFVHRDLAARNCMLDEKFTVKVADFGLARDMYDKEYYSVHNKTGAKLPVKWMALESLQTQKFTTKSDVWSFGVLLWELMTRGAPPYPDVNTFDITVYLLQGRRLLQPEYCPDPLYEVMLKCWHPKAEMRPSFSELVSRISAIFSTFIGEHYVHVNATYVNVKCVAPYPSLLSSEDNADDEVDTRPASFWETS

With `CC[C@H](C)[C@@H]([C@@H](CC(=O)N1CCC[C@H]1[C@H](OC)[C@@H](C)C(=O)N[C@H](C)[C@@H](O)c1ccccc1)OC)N(C)C(=O)[C@@H](NC(=O)[C@@H](NC)C(C)C)C(C)C` [MMAE, monomethyl auristatin E] (H-[NMeV]V[Dil][Dolaproine]-X1), the “percentage of cells in G2-M phase” value in the assay on EBC-1 cells [1] is 68.6%.

On to “Q397-noV205C: Anti-cMET antibody of MYTX-011 without the V205C substitution; SEQ ID NO: 75 and SEQ ID NO: 81”, for which the ADCC activity result with EBC-1 cells [2] is recorded as “minimal to no; also recorded: Minimal ADCC activity”. Further, the “phosphorylation of ERK1/2 or Akt1” value in assay [3] is given as “minimal phosphorylation”. For the same molecule, the “CDC activity (EBC-1 cell lysis)” value in the assay on EBC-1 cells [4] is recorded as “minimal to no; also recorded: did not induce EBC-1 cell lysis”. Moreover, the ADCP activity entry in the assay with EBC-1 cells [5] is recorded as “minimal to no; also recorded: no ADCP activity”. Further, the “proliferation of cMET+ NCI-H441 cells” value in the assay with NCI-H441 cells is recorded as “did not increase”.

B1: MYTX-011 mAb (antibody, V domains shown)
VH: QVQLVQSGAEVKKPGASVKVSCKASGYTFTDYYMHWVRQAPGQGLEWMGRVNPNRRGTTYNQKFEGRVTMTTDTSTSTAYMELRSLRSDDTAVYYCARANWLDYWGQGTTVTVSS
VL: DIQMTQSPSSLSASVGDRVTITCSVSSSVSSIHLHWYQQKPGKAPKLLIYHTSNLASGVPSRFSGSGSGTDFTLTISSLQPEDFATYYCQVYSGYPLTFGGGTKVEIKR
notes: also called Q397
In the case of B1, the Kd amounted to 4 nM with recombinant human cMET and 9.44 nM in assay [7]. Moreover, the binding result with mouse cMET and with rat cMET was “no binding” in each case. In addition, the “uptake of pHrodo-conjugated mAb in NCI-H1975 cells by live cell imaging, at 24 hours, over the parent mAb” value in assay [6] stood at 3 fold.

B2: MYTX-011 (antibody, IgG1, V domains shown)
VH: B1 VH
VL: B1 VL
modifications: vcMMAE (mc-vc-PAB-MMAE) linked to the engineered cysteine at position 98 of the light chain constant domain ("V205C"); DAR 2
notes: Antibody drug conjugate: humanized triple hinge IgG1 kappa antibody Q397 conjugated site-specifically to vcMMAE, drug to antibody ratio 2; also called anti-cMET pH-ADC; pH-ADC
For the molecule B2, the binding result with mouse cMET and with rat cMET was “no binding” throughout.

The values above are taken from US20240197906A1, “ANTI-cMET ANTIBODY DRUG CONJUGATES AND [sequence] USES THEREOF” (Mythic Therapeutics, Inc., priority 2022, published 2024).
